Experimental data from publication PMC2597655.

Legend:
DNA polymerase beta WT = DNA polymerase beta WT (UniProt P06766 1-335); experiment: EMSA
[1] = molecular target: DNA polymerase beta I260Q (UniProt P06766 1-335, I260Q); experiment: EMSA

B1: CII5T A:A (5 nt gap, mispaired primer terminus) (dsDNA)
DNA 1: TTGCGACTTATCAACGCCCACAA
DNA 2: GCTGTCTTCTCAGTTTC
DNA 3: GAAACTGAGAAGACAGCTACTGATGTGGGCGTTGATAAGTCGCAA
modifications: 5'-phosphate on downstream oligo and template
Kd (DNA polymerase beta WT): 6 nM | Kd [1]: 2 nM
